# B1: Nitrate/nitrite sensor protein NarX (Escherichia coli (strain K12)), P0AFA2 (parent)
# chain: MLKRCLSPLTLVNQVALIVLLSTAIGLAGMAVSGWLVQGVQGSAHAINKAGSLRMQSYRLLAAVPLSEKDKPLIKEMEQTAFSAELTRAAERDGQLAQLQGLQDYWRNELIPALMRAQNRETVSADVSQFVAGLDQLVSGFDRTTEMRIETVVLVHRVMAVFMALLLVFTIIWLRARLLQPWRQLLAMASAVSHRDFTQRANISGRNEMAMLGTALNNMSAELAESYAVLEQRVQEKTAGLEHKNQILSFLWQANRRLHSRAPLCERLSPVLNGLQNLTLLRDIELRVYDTDDEENHQEFTCQPDMTCDDKGCQLCPRGVLPVGDRGTTLKWRLADSHTQYGILLATLPQGRHLSHDQQQLVDTLVEQLTATLALDRHQERQQQLIVMEERATIARELHDSIAQSLSCMKMQVSCLQMQGDALPESSRELLSQIRNELNASWAQLRELLTTFRLQLTEPGLRPALEASCEEYSAKFGFPVKLDYQLPPRLVPSHQAIHLLQIAREALSNALKHSQASEVVVTVAQNDNQVKLTVQDNGCGVPENAIRSNHYGMIIMRDRAQSLRGDCRVRRRESGGTEVVVTFIPEKTFTDVQGDTHE
# Variants of: B1
# Settings: with narl_ecoli narL
row,Variant,effect of a mutation on the interaction
1,H399Q,decreasing interaction
2,H399Q;D400A,decreasing interaction

# Next, values leading:
row,effect of a mutation on the interaction,Variant
1,disrupting interaction,H399Q;Q404A
2,disrupting interaction,H399Q;Q404H

# — IntAct's records for PubMed 21078995
